Test results published in US20230416365A1 (Hoffmann-La Roche, published 2023).
Numbering of substitutions follows the chain as printed.

T1: NA(B2)A-avi-His (biotinylated at the avi tag)
T1 chain: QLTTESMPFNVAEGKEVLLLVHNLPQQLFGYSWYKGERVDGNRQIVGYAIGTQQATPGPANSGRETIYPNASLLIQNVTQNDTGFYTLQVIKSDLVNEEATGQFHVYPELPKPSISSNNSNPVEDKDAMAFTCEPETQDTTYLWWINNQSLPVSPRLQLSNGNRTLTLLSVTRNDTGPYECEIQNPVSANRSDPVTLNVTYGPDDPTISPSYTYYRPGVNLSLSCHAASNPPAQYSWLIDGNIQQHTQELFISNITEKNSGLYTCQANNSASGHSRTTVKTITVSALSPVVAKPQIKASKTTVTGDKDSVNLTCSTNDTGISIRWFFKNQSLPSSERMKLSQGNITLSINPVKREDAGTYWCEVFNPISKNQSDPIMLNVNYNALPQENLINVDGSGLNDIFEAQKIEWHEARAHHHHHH

T2: N(A2B2)A-avi-His (biotinylated at the avi tag)
T2 construct: also called biotinylated N(A2B2)A-avi-His
T2 chain: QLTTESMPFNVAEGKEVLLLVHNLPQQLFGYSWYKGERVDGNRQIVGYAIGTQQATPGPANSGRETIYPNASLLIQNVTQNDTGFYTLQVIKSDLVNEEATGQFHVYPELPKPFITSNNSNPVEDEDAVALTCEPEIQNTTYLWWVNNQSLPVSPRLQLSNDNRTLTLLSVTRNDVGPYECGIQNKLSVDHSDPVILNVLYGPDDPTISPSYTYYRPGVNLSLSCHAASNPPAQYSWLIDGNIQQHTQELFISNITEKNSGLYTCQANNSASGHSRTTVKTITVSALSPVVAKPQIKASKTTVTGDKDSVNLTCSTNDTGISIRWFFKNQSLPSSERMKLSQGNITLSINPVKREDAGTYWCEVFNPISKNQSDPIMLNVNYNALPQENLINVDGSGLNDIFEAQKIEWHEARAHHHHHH

B1: P001.177 Fab (Fab, V domains shown)
VH: EVQLLESGGGLVQPGGSLRLSCAASGFYFTDYYMNWVRQAPGKGLEWLGFISNKANAYTTEYSASVKGRFTISRDKSKNTLYLQMNSLRAEDTATYYCTRDRGLRFYFDYWGQGTTVTVSS
VL: EIVLTQSPATLSLSPGERATLSCRASSSVTYIHWYQQKPGQAPRSWIYATSNLASGIPARFSGSGSGTDFTLTISSLEPEDFAVYYCQHWSSKPPTFGQGTKLEIK
notes: Fab from E. coli
B2: P006.038 Fab (Fab, V domains shown)
VH: B1 VH with Y28T, S52G, L104I, Y107G
VL: B1 VL with K93V
notes: Fab from E. coli
B3: P005.102 Fab (Fab, V domains shown)
VH: B1 VH with Y28T, S52G, L104I, Y107Q
VL: B1 VL with P94S
notes: Fab from E. coli
B4: P002.139 Fab (Fab, V domains shown)
VH: B1 VH with Y33A, F50V
VL: B1 VL with R24H
notes: Fab from E. coli
B5: P005.097 Fab (Fab, V domains shown)
VH: B1 VH with Y28T, S52G, Y107S
VL: B1 VL with K93Q
notes: Fab from E. coli
B6: P005.103 Fab (Fab, V domains shown)
VH: B1 VH with Y28T, S52G, L104I
VL: B1 VL with K93I, P94S
notes: Fab from E. coli
B7: FAP (4B9) - CD28 (CD28(SA)_Variant 12) 1+1 (bispecific antibody, human IgG1, kappa, L234A L235A)
heavy 1: EIVLTQSPGTLSLSPGERATLSCRASQSVTSSYLAWYQQKPGQAPRLLINVGSRRATGIPDRFSGSGSGTDFTLTISRLEPEDFAVYYCQQGIMLPPTFGQGTKVEIKSSASTKGPSVFPLAPSSKSTSGGTAALGCLVKDYFPEPVTVSWNSGALTSGVHTFPAVLQSSGLYSLSSVVTVPSSSLGTQTYICNVNHKPSNTKVDKKVEPKSCDKTHTCPPCPAPEAAGGPSVFLFPPKPKDTLMISRTPEVTCVVVDVSHEDPEVKFNWYVDGVEVHNAKTKPREEQYNSTYRVVSVLTVLHQDWLNGKEYKCKVSNKALGAPIEKTISKAKGQPREPQVCTLPPSRDELTKNQVSLSCAVKGFYPSDIAVEWESNGQPENNYKTTPPVLDSDGSFFLVSKLTVDKSRWQQGNVFSCSVMHEALHNHYTQKSLSLSP
light 1: EVQLLESGGGLVQPGGSLRLSCAASGFTFSSYAMSWVRQAPGKGLEWVSAIIGSGASTYYADSVKGRFTISRDNSKNTLYLQMNSLRAEDTAVYYCAKGWFGGFNYWGQGTLVTVSSASVAAPSVFIFPPSDEQLKSGTASVVCLLNNFYPREAKVQWKVDNALQSGNSQESVTEQDSKDSTYSLSSTLTLSKADYEKHKVYACEVTHQGLSSPVTKSFNRGEC
heavy 2: not shown
light 2: DIQMTQSPSSLSASVGDRVTITCRASQNIYVWLNWYQQKPGKAPKLLIYKASNLYSGVPSRFSGSRSGTDFTLTISSLQPEDFATYYCQQGQTYPYTFGQGTKLEIKRTVAAPSVFIFPPSDRKLKSGTASVVCLLNNFYPREAKVQWKVDNALQSGNSQESVTEQDSKDSTYSLSSTLTLSKADYEKHKVYACEVTHQGLSSPVTKSFNRGEC
notes: huIgG1 PG-LALA CrossFab 1+1; also called P1AE3133
B8: FAP (4B9) - CD28 (CD28(SA)_Variant 16) 1+1 (bispecific antibody, human IgG1, kappa, L234A L235A)
heavy 1: B7 heavy 1
light 1: B7 light 1
heavy 2: not shown
light 2: not shown
notes: huIgG1 PG-LALA CrossFab 1+1; also called P1AE3135
B9: FAP (4B9)-CD28 (CD28(SA)_Variant 8) 1+1 (bispecific antibody, human IgG1, kappa, L234A L235A)
heavy 1: B7 heavy 1
light 1: B7 light 1
heavy 2: not shown
light 2: not shown
notes: huIgG1 PG-LALA CrossFab 1+1; also called P1AE3131
B10: FAP (4B9) - CD28 (CD28(SA)_Variant 17) 1+1 (bispecific antibody, human IgG1, kappa, L234A L235A)
heavy 1: B7 heavy 1
light 1: B7 light 1
heavy 2: not shown
light 2: not shown
notes: huIgG1 PG-LALA CrossFab 1+1; also called P1AE3136
B11: FAP (4B9) - CD28 (CD28(SA)_Variant 15) 1+1 (bispecific antibody, human IgG1, kappa, L234A L235A)
heavy 1: B7 heavy 1
light 1: B7 light 1
heavy 2: not shown
light 2: not shown
notes: huIgG1 PG-LALA CrossFab 1+1; also called P1AE3134
B12: FAP (4B9) - CD28 (CD28(SA)_Variant 11) 1+1 (bispecific antibody, human IgG1, kappa, L234A L235A)
heavy 1: B7 heavy 1
light 1: B7 light 1
heavy 2: not shown
light 2: not shown
notes: huIgG1 PG-LALA CrossFab 1+1; also called P1AE3132
B13: CD28(SA)_variant_30 (antibody, human IgG1, kappa, L234A L235A)
heavy: not shown
light: B7 light 2
chain: DKTHTCPPCPAPEAAGGPSVFLFPPKPKDTLMISRTPEVTCVVVDVSHEDPEVKFNWYVDGVEVHNAKTKPREEQYNSTYRVVSVLTVLHQDWLNGKEYKCKVSNKALGAPIEKTISKAKGQPREPQVCTLPPSRDELTKNQVSLSCAVKGFYPSDIAVEWESNGQPENNYKTTPPVLDSDGSFFLVSKLTVDKSRWQQGNVFSCSVMHEALHNRFTQKSLSLSP
notes: monovalent one-armed huIgG1 PG-LALA; from supernatant; also called P1AE3086
B14: CD28(SA)_variant_31 (antibody, human IgG1, kappa, L234A L235A)
heavy: not shown
light: not shown
chain: B13 chain
notes: monovalent one-armed huIgG1 PG-LALA; from supernatant; also called P1AE3087
B15: CD28(SA)_variant_27 (antibody, human IgG1, kappa, L234A L235A)
heavy: not shown
light: not shown
chain: B13 chain
notes: monovalent one-armed huIgG1 PG-LALA; from supernatant; also called P1AE3083
B16: CD28(SA)_variant_25 (antibody, human IgG1, kappa, L234A L235A)
heavy: not shown
light: not shown
chain: B13 chain
notes: monovalent one-armed huIgG1 PG-LALA; from supernatant; also called P1AE3081
B17: CD28(SA)_variant_26 (antibody, human IgG1, kappa, L234A L235A)
heavy: not shown
light: not shown
chain: B13 chain
notes: monovalent one-armed huIgG1 PG-LALA; from supernatant; also called P1AE3082
B18: CD28(SA)_variant_29 (antibody, human IgG1, kappa, L234A L235A)
heavy: not shown
light: not shown
chain: B13 chain
notes: monovalent one-armed huIgG1 PG-LALA; from supernatant; also called P1AE3085

Target: T1, NA(B2)A-avi-His
Assay: SPR, ProteOn, 2000 RU NA(B2)A-avi-His on NLC chip, Fab in bacterial supernatant

binding result	Binder
no binding	B1
no binding	B2
no binding	B3
no binding	B4
no binding	B5
no binding	B6

target: human FAP on 3T3-huFAP cells (clone 19) (human, UniProt Q12884 1-760); assay: flow cytometry on 3T3-huFAP cells, FAP-CD28 1+1 constructs, MFI (PE)

binding result	Binder
binds	B7
binds	B8
binds	B9
binds	B10
binds	B11
binds	B12

Target: T2, N(A2B2)A-avi-His
Assay: SPR, ProteOn, antigen on NLC chip, purified Fab as analyte

Kd	koff	kon	Binder
0.29 nM	7.85e-05 s⁻¹	267000 M⁻¹ s⁻¹	B1
0.25 nM	5.78e-05 s⁻¹	225000 M⁻¹ s⁻¹	B2
0.29 nM	3.92e-05 s⁻¹	134000 M⁻¹ s⁻¹	B3
0.63 nM	6.53e-05 s⁻¹	105000 M⁻¹ s⁻¹	B4
0.91 nM	8.54e-05 s⁻¹	94000 M⁻¹ s⁻¹	B5
0.5 nM	4.99e-05 s⁻¹	100000 M⁻¹ s⁻¹	B6

Target: T2, N(A2B2)A-avi-His
Assay: SPR off-rate, ProteOn, antigen on NLC chip, Fab in bacterial supernatant

koff	Binder
9.81e-05 s⁻¹	B1
7.41e-05 s⁻¹	B2
4.24e-05 s⁻¹	B3
6.47e-05 s⁻¹	B4
8.87e-05 s⁻¹	B5
5.37e-05 s⁻¹	B6

target: T3, human CD28 on CHO cells (parental cell line CHO-k1 ATCC #CCL-61, modified to stably overexpress human CD28) (human, UniProt P10747 19-220); assay: binding to CHO cells expressing human CD28 (by the table's title)
T3 construct: also called hu CD28; CHO-hCD28

Kd	Binder
1 nM	B7
5.3 nM	B8
23.8 nM	B9
3.7 nM	B10
7.1 nM	B11
12.5 nM	B12

target: T3, human CD28 on CHO cells (parental cell …); assay: flow cytometry on CHO cells stably expressing human CD28, monovalent one-armed IgG from supernatant, MFI (PE)

binding result	Binder
binds	B13
binds	B14
binds	B15
binds	B16
binds	B17
binds	B18

target: T4, biotinylated huCD28-Fc (dimeric CD28-Fc construct with a monovalent biotinylated avi-tag) (human, UniProt P10747 19-152, biotinylated at the C-terminal avi tag); assay: SPR, ProteOn XPR36, huCD28-Fc on NLC chip, bispecific as analyte
T4 construct: not shown: hum IgG1 Fc fragment with hole and PG-LALA mutations; hum IgG1 Fc fragment with knob and PG-LALA mutations

Kd	koff	kon	Binder
1 nM	0.000267 s⁻¹	261000 M⁻¹ s⁻¹	B7
5.3 nM	0.000994 s⁻¹	187000 M⁻¹ s⁻¹	B8
23.8 nM	0.00521 s⁻¹	219000 M⁻¹ s⁻¹	B9
3.7 nM	0.00125 s⁻¹	338000 M⁻¹ s⁻¹	B10
7.1 nM	0.00184 s⁻¹	259000 M⁻¹ s⁻¹	B11
12.5 nM	0.00287 s⁻¹	230000 M⁻¹ s⁻¹	B12
